Data on one molecule can be found in article PMC7960600, “A DARPin targeting activated Mac-1 is a novel diagnostic tool and potential anti-inflammatory agent in myocarditis, sepsis and myocardial infarction” (Basic Research in Cardiology, 2021).

The assay addresses T1, human ICAM-1 (R&D Systems) (human, UniProt P05362 28-480).
T1 construct: ICAM-1, human, recombinant, bought; No catalogue number printed; also called recombinant human ICAM-1; source: bought: R&D Systems
Briefly: ELISA; 96-well Maxisorb plates coated with 0.1 µM human or mouse ICAM-1 (or BSA, 30 µM); recombinant human or mouse αM I-domain added; anti-His-HRP, OD 450 nm. As to conditions: both partners purified. (An ELISA detects its analyte on a solid surface through an enzyme-linked reagent.)

T1 sequence (P05362 28-480): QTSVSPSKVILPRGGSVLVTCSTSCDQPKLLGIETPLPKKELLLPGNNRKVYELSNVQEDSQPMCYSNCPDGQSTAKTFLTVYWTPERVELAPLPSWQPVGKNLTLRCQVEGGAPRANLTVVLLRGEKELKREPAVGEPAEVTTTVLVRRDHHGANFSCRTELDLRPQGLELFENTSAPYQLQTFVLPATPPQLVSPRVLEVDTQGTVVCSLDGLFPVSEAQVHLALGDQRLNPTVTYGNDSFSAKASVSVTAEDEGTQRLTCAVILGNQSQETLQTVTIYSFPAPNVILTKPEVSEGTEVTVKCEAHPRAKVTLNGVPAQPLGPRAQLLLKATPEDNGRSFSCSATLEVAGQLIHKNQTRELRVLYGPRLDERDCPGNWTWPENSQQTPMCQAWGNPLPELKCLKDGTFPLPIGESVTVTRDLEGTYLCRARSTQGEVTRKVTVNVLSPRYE

B1: recombinant human αM I-domain (wild type) (domain or fragment)
chain: RQQPQKFPEALRGCPQEDSDIAFLIDGSGSIIPHDFRRMKEFVSTVMEQLKKSKTLFSLMQYSEEFRIHFTFKEFQNNPNPRSLVKPITQLLGRTHTATGIRKVVRELFNITNGARKNAFKILVVITDGEKFGDPLGYEDVIPEADREGVIRYVIGVGDAFRSEKSRQELNTIASKPPRDHVFQVNNFEALKTIQNQLREKIFAIEGTQTGSSSSFEHEMSQEGFSAAALEHHHHHH
notes: I-domain of the αM chain (CD11b) of human Mac-1; no start methionine or leader is printed; source: E. coli BL21 DE3 (vector pET-20b(+)), purified (Ni beads, dialysed against PBS); not shown: His6, C-terminal, kept
In the case of B1, the binding result was “binds”.
